This is an account of results in US20110268733A1 (Daiichi Sankyo, published 2011).

In assay [1] the target is T1, human Siglec-15-Fc (human).
T1 construct: Expressed in 293-F cells, purified on Protein A; also called soluble human Siglec-15-Fc; human Siglec-15-Fc protein
Nature of the assay: ELISA, human Siglec-15-Fc immobilized at 1 µg/ml, antibody 1 to 0.004 µg/ml, fluorescence read-out.

The target in assay [2] is T2, human Siglec-15 V-set domain (human, UniProt Q6ZMC9 39-165).
T2 construct: The His tag was cleaved with thrombin before use; also called human V-set domain
T2 sequence: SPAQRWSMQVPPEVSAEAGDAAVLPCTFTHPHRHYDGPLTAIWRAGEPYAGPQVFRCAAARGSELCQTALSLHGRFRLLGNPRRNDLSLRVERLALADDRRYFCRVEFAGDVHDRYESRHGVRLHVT
Nature of the assay: competitive ELISA: V-set domain (0 to 20 µg/ml) pre-mixed with #32A1 (2 µg/ml), then added to captured human Siglec-15-Fc. The protocol:
In a 96-well maxi-sorp plate (manufactured by Nunc, Inc., model number: 442404), 100 μl of a goat anti-human Fc antibody (Jackson ImmunoResearch, Inc., model number: 109-005-098) (1.25 μg/ml) was added to each well and immobilized overnight at 4° C. After the 96-well maxi-sorp plate was washed twice with PBS, 100 μl of the soluble human Siglec-15-Fc (1 μg/ml) was added to each well and immobilized at room temperature for 1 hour. Thereafter, 300 μl of a 5% skim milk/PBS solution was added to each well, and blocking of the wells was performed at room temperature for 3 hours. In the meantime, 2 μg/ml of the rat anti-mouse Siglec-15 monoclonal antibody #32A1 was mixed with an equivalent amount of 0, 0.032, 0.16, 0.8, 4, or 20 μg/ml of the human Siglec-15 V-set domain, and a reaction was allowed to proceed at room temperature for 1.5 hours. After the 96-well maxi-sorp plate had been washed twice with PBS, 100 μl of the mixed solution of the rat anti-mouse Siglec-15 monoclonal antibody #32A1 and the human Siglec-15 V-set domain was added thereto, and a reaction was allowed to proceed at room temperature for 1 hour. […] Then, 100 μl of a reaction stopping solution was added thereto, and an absorbance at 405 nm was measured.
On the technique in general: An ELISA detects its analyte on a solid surface through an enzyme-linked reagent.

Assay [3] deals with T1, human Siglec-15-Fc. The experiment in a line: ELISA, human Siglec-15-Fc immobilized at 5 µg/ml, antibody 1.28 to 20,000 ng/ml. As to the method:
The property of the rat anti-mouse Siglec-15 monoclonal antibody binding to human Siglec-15 protein was evaluated by an ELISA method. The human Siglec-15-Fc protein (subjected to replacement with A-PBS) produced in b) of Example 12 was diluted to 5 μg/ml with 0.1 M sodium carbonate buffer (pH 9.5), and the resulting solution was added to a 96-well plate (manufactured by Nalge Nunc International, Inc., Cat. No. 430341) at 100 μl/well. After the plate had been left at room temperature for 1 hour, the solution was removed and a washing buffer (phosphate-buffered saline containing 0.05% Tween 20) was added at 300 μl/well and then removed. After this washing procedure had been performed one more time, phosphate-buffered saline containing 25% BlockAce (manufactured by Dainippon Sumitomo Pharma Co., Ltd.) was added at 200 μl/well, and the plate was left at room temperature for 1 hour, whereby blocking was performed. The liquid was removed, and the plate was washed twice with 300 μl/well of the washing buffer. […] After developing the color, an absorbance at 492 nm was measured using a microplate reader (manufactured by Nihon Molecular Devices Corporation).

Changes are numbered by the printed parent chain. In names and notes the source's numbering stands.

T1 sequence (chain, as listed by the source limits assumed): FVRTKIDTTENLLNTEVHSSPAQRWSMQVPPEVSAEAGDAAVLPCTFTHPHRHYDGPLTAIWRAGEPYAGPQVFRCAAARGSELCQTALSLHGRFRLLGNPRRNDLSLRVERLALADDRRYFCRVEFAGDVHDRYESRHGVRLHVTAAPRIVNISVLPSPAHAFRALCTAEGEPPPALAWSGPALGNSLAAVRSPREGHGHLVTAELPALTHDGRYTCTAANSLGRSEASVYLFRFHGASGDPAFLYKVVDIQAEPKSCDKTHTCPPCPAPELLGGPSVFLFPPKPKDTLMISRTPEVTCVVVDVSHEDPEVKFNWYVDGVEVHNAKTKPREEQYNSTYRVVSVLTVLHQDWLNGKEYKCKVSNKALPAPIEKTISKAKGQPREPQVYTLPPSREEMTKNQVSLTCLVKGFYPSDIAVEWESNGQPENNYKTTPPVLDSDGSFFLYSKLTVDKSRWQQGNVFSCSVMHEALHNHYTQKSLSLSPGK

B1: h#32A1-T1 (antibody, human IgG1, kappa, V domains shown)
VH: EVQLVESGGGLVQPGGSLRLSCAASGFNFNDYFMNWVRQAPGKGLEWVAQIRNKIYTYATFYAESLEGRFTISRDNAKNSLYLQMNSLRAEDTAVYYCARSLTGGDYFDYWGQGTLVTVSS
VL: DIVMTQSPDSLAVSLGERATINCRASQSVTISGYSFIHWYQQKPGQPPKLLIYRASNLASGVPARFSGSGSGTDFTLTISSLQAEDVAVYYCQQSRKSPWTFGGGTKVEIKR
notes: Human IgG1 / kappa constant regions; also called humanized antibody of rat anti-mouse Siglec-15 #32A1 T1; h#32A1-T1H / h#32A1-T1L
With B1, the binding result with human Siglec-15-Fc [1] is “binds”.

B2: h#32A1-T6 (antibody, human IgG1, kappa, V domains shown)
VH: B1 VH with L4V, A24T, G42E, F70V, A77S, N79S, S80T, L81V, N86S, A99T
VL: B1 VL with M4L, N22S, K49R, V62I, V89T, Y91F, G103A
notes: Human IgG1 / kappa constant regions; also called humanized antibody of rat anti-mouse Siglec-15 #32A1 T6; h#32A1-T6H / h#32A1-T6L
On to B2, for which the binding result with human Siglec-15-Fc [1] is recorded as “binds”.

B3: h#32A1-T3 (antibody, human IgG1, kappa, V domains shown)
VH: EVQIVESGGGLVQPGGSLRLSCATSGFNFNDYFMNWVRQAPEKGLEWVAQIRNKIYTYATFYAESLEGRVTISRDDSESSVYLQMSSLRAEDTAVYYCTRSLTGGDYFDYWGQGTLVTVSS
VL: B1 VL with M4L, N22S, P47Q, K49R, V62I, V89T, Y91F, G103A
notes: Human IgG1 / kappa constant regions; also called humanized antibody of rat anti-mouse Siglec-15 #32A1 T3; h#32A1-T3H / h#32A1-T3L
With B3, the binding result with human Siglec-15-Fc [1] is “binds”.

B4: h#32A1-T5 (antibody, human IgG1, kappa, V domains shown)
VH: B3 VH with I4V, E42G, V70F, D76N, E78K, S80T, S86N
VL: B1 VL with M4L, V62I, V89T, G104Q
notes: Human IgG1 / kappa constant regions; also called humanized antibody of rat anti-mouse Siglec-15 #32A1 T5; h#32A1-T5H / h#32A1-T5L
For B4, the binding result in the assay with human Siglec-15-Fc [1] is given as “binds”.

B5: h#32A1-T2 (antibody, human IgG1, kappa, V domains shown)
VH: B1 VH with G42E, F70V, N86S
VL: B1 VL with N22S, K49R, Y91F, G103A
notes: Human IgG1 / kappa constant regions; also called humanized antibody of rat anti-mouse Siglec-15 #32A1 T2; h#32A1-T2H / h#32A1-T2L
For the molecule B5, in the assay with human Siglec-15-Fc [1], the binding result is listed as “binds”.

B6: rat anti-mouse Siglec-15 monoclonal antibody #32A1 (antibody, rat IgG2a, V domains shown)
VH: B3 VH with V5L, S7T, Q13K, M85V, V95I, T115V, L116M, S121L
VL: DIVLTQSPALAVSLGQRATISCRASQSVTISGYSFIHWYQQKPGQQPRLLIYRASNLASGIPARFSGSGSGTDFTLTINPVQADDIATYFCQQSRKSPWTFAGGTKLELRRA
notes: Whole rat IgG purified from nude mouse ascites; Cloning primers were designed from the rat IgG2a heavy chain and kappa light chain constant regions; also called #32A1 antibody; rat #32A1 antibody
For the molecule B6, the binding result (in assay [2]; with human Siglec-15-Fc [3]) was “binds” in each case.
